A value given as a limit tells only on which side of the number the result lay.

One series concerns the target CD19 (UniProt P15391). As to the kind of experiment: cell-based or functional assay.
Series [1] has as its system Sleeping Beauty transposase SB100X (hyperactive) (synthetic construct (reconstructed Tc1-like fish transposon)). As to the kind of experiment: cell_activity. As to conditions: day 14, CD8+ T cells, n=7.

Chain of UniProt P15391 (P15391 20-556 limits assumed): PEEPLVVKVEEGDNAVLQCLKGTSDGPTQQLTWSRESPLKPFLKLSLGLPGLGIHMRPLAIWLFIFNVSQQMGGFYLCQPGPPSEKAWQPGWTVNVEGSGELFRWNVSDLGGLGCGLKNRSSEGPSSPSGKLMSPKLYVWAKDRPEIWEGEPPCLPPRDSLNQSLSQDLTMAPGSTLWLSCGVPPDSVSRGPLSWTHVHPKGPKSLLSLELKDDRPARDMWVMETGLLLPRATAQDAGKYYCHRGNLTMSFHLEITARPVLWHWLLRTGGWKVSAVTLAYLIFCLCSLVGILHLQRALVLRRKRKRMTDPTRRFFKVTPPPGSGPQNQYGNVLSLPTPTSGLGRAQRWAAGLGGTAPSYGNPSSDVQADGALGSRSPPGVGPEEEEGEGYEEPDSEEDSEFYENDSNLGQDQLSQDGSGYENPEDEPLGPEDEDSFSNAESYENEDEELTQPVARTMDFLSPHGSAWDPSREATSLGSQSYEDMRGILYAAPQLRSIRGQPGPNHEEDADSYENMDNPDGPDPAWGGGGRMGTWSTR

“CD19-CAR (FMC63 targeting domain, IgG4-Fc Hinge spacer, CD3zeta and 4-1BB costimulation) (from UniProt P01861 99-110; Q07011 214-255; P20963 52-163)”: in the series with CD19, the proliferation by CFSE dilution (cell divisions in 72 hours) was over 3.

As to “CD19-CAR_EGFRt transposon in pT2/HB plasmid”, in series [1] (SB100X from plasmid), the activity (% EGFRt+ cells) stood at 12.8.

“CD19-CAR_EGFRt transposon in pT2/HB minicircle”: the activity (% EGFRt+ cells) in series [1] (SB100X from minicircle) amounted to 49.8.

These data come from patent publication US20190169637A1.
